Measurements from patent publication US20200299408A1 (Genentech, published 2020).
Changes are numbered by the printed parent chain. Names may count otherwise. “And” between values parts separate entries of the source, which are not always exact repeats. Equal entries are not always repeated. One block for each binder: values may come before it.

Assays:
[1] = molecular target: T1, HER2 extracellular domain (ECD) (UniProt P04626 23-652, limits assumed); assay: HER2 binding affinity of the HER2 arm; assay and form of HER2 not stated on the sheet or in the legend
T1 construct: extracellular domain; also called soluble HER2 extracellular domain; HER2 ECD

human HER2 on cells [2] = molecular target: T2, human HER2 on cells (human, UniProt P04626 23-1255); assay: cell-based or functional assay
[3] = molecular target: T1, HER2 extracellular domain (ECD); assay: HER2 KD relative to 4D5 (WT); assay not stated
[4] = molecular target: T3, single chain human CD3ε-26mer-CD3γ (CD3εγ) (human); assay: Biacore, human CD3εγ on chip, TDB in flow through
T3 construct: also called human CD3εγ
T3 chain: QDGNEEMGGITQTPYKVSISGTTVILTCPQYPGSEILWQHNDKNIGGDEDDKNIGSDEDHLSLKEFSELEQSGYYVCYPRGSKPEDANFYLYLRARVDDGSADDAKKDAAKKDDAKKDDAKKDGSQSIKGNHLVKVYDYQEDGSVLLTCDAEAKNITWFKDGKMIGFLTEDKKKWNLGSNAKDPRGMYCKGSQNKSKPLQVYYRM

human CD3 on T cells [5] = molecular target: T4, human CD3 on T cells (human, UniProt P07766 22-207); assay: FACS on Jurkat cells (CD3); EC50 table for the curves of FIGS. 21A-21B; source E. coli
T4 construct: whole, on cells; On cells CD3ε stands in the CD3/TCR complex; also called CD3 antigen; CD3ε
Protocol: (§1) Binding affinities for the each of the CD3/CD20 TDBs were tested by Biacore or FACS analysis, as described above for the anti-CD3 antibodies. Briefly, for Biacore binding assays, human CD3εγ was immobilized on Biacore Series S CM5 sensor chip using the amine coupling kit from Biacore and CD3/CD20 TDBs or Fab variants thereof were in the flow through. For FACS binding assays, either Bjab cells (for B cell antigens) or Jurkat cells (for CD3 antigen) were incubated with various concentrations of TDB antibodies at 4° C. for 30 minutes, then cells were washed and incubated with 2nd antibody (anti-huIgG-PE; BD Bioscience) for another 15 minutes, before cells were washed again and ready for FACS analysis.

[6] = molecular target: T3, single chain human CD3ε-26mer-CD3γ …; assay: Biacore, human CD3εγ on chip, antibody in flow-through
cyCD3εγ = molecular target: T5, cyCD3εγ (cynomolgus monkey); assay: monovalent binding affinity, method not stated on the sheet
T5 chain 1: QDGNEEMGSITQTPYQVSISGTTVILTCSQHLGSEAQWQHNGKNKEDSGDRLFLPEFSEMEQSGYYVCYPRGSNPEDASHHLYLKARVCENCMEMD
T5 chain 2: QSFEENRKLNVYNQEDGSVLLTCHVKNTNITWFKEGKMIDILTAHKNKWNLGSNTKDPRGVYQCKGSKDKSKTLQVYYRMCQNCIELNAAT

[7] = molecular target: T3, single chain human CD3ε-26mer-CD3γ …; assay: Biacore, monovalent KD of the CD3 arm; CD3 antigen not named on the sheet (reactivity hu, cyno)
[8] = molecular target: T3, single chain human CD3ε-26mer-CD3γ …; assay: monovalent binding affinity, method not stated on the sheet; column huCD3εγ
E6A = molecular target: T6, E6A; assay: phage ELISA: anti-CD3 antibody coated on the plate, dilution series of M13 phage displaying the CD3εγ variant, anti-M13-HRP, OD A450; [phage] axis 10^-3 to 10^0 without unit
T6 construct: Residue number counts from the N-terminus of CD3ε; also called CD3εγ E6A; CD3 mutant E6A
T6 single chain CD3ε-26mer linker-CD3γ: T3 chain with E6A
Protocol: (§2) This CD3εγ phagemid was used as a template for making single alanine mutations in CD3ε by Kunkel mutagenesis. […] The effect of alanine mutation in CD3εγ on anti-CD3 antibody binding was assessed using a phage ELISA. Each anti-CD3 antibody was immobilized on a NUNC maxisorp plate at 2 μg/ml in PBS buffer overnight at 4° C. Purified phage supernatant displaying a CD3εγ alanine variant (1.0 OD₄₅₀) was added to the plate and allowed to bind at room temperature with shaking for 1 h. After washing, bound phage was detected with anti-M13-HRP (GE Healthcare cat #45-001-419).

E5A = molecular target: T7, E5A; assay: as above
T7 construct: Residue number counts from the N-terminus of CD3ε; also called CD3εγ E5A; CD3 mutant E5A
T7 single chain CD3ε-26mer linker-CD3γ: T3 chain with E5A
Protocol: as §2

N4A = molecular target: T8, N4A; assay: as above
T8 construct: Residue number counts from the N-terminus of CD3ε; also called CD3εγ N4A; CD3 mutant N4A
T8 single chain CD3ε-26mer linker-CD3γ: T3 chain with N4A
Protocol: as §2

G3A = molecular target: T9, G3A; assay: as above
T9 construct: Residue number counts from the N-terminus of CD3ε; also called CD3εγ G3A; CD3 mutant G3A
T9 single chain CD3ε-26mer linker-CD3γ: T3 chain with G3A
Protocol: as §2

human CD3 on T cells [9] = molecular target: T4, human CD3 on T cells; assay: Scatchard; table headed 'Bivalent Binding Affinity', though its footnote reads 'monovalent binding Kd measured by scatchard'; cells not named
human CD3 on T cells [10] = molecular target: T4, human CD3 on T cells; assay: FACS on Jurkat cells, anti-huIgG-PE, MFI/PE; panel 'Jurkat / CD3 arm'
human CD3 on T cells [11] = molecular target: T4, human CD3 on T cells; assay: FACS on Jurkat cells (CD3), anti-huIgG-PE; number printed beside the curve without a quantity name, taken as EC50
Protocol: as §1

human CD3 on T cells [12] = molecular target: T4, human CD3 on T cells; assay: as above; remark: listed apart in the source
Protocol: as §1

human CD3 on T cells [13] = molecular target: T4, human CD3 on T cells; assay: as above; remark: listed apart in the source
Protocol: as §1

human CD3 on T cells [14] = molecular target: T4, human CD3 on T cells; assay: Scatchard; table 'Monovalent Binding Affinity'; the partner arm is not given, the TDB is taken from legend paragraph 149, p-1410 and Figure 16; cells not named
human HER2 on cells [15] = molecular target: T2, human HER2 on cells; assay: KD (nM) box at the right of the FACS panels; method and antigen form are not stated on the sheet; taken as affinity of the HER2 arm, since the three TDBs differ only in it

Kd [1]: 60 nM
KD fold [3]: 120 fold
B1: hu4D5.Y100A (bispecific antibody, V domains shown)
VH 1: not shown
VL 1: not shown
VH 2: EVQLVQSGAEVKKPGASVKVSCKASGYTFTNYYIHWVRQAPGQGLEWIGWIYPGDGNTKYNEKFKGRATLTADTSTSTAYLELSSLRSEDTAVYYCARDSYSNYYFDYWGQGTLVTVSS
VL 2: DIVMTQSPDSLAVSLGERATINCKSSQSLLNSRTRKNYLAWYQQKPGQPPKLLIYWASTRESGVPDRFSGSGSGTDFTLTISSLQAEDVAVYYCTQSFILRTFGQGTKVEIK
notes: not the same molecule as m28, which has the UCHT1v9 arm; also called hu4D5.Y100A-40G5c HER2-TDB
EC50 of SKBR3 target cell killing (human HER2 on cells [2]): > 10000 ng/mL

Kd [4]: 71.5 nM
koff [4]: 0.0256 s⁻¹
kon [4]: 358000 M⁻¹ s⁻¹
EC50 (human CD3 on T cells [5]): 1.85 µg/mL and ~12 nM
B2: 40G5c Ecoli (bispecific antibody, V domains shown)
VH 1: EVQLVESGGGLVQPGGSLRLSCAASGYTFTSYNMHWVRQAPGKGLEWVGAIYPGNGDTSYNQKFKGRFTISVDKSKNTLYLQMNSLRAEDTAVYYCARVVYYSNSYWYFDVWGQGTLVTVSS
VL 1: DIQMTQSPSSLSASVGDRVTITCRASSSVSYMHWYQQKPGKAPKPLIYAPSNLASGVPSRFSGSGSGTDFTLTISSLQPEDFATYYCQQWSFNPPTFGQGTKVEIK
VH 2: B1 VH 2
VL 2: B1 VL 2
modifications: E. coli-produced (aglycosylated) full-length knob-into-hole IgG; constant regions are not in the letters.
notes: E. coli material, aglycosylated; also called CD3/CD20 TDB 2H7v16/40G5c produced in E. coli

Kd [6]: 15 nM
koff [6]: 0.0176 s⁻¹
kon [6]: 1.2e+06 M⁻¹ s⁻¹
Kd (cyCD3εγ): 14 nM
Kd [7]: 51 nM
Kd [8]: 12 nM
binding result (E6A): binds
binding result (E5A): binds
binding result (N4A): binds
binding result (G3A): binds
B3: anti-CD3 clone 40G5c (antibody, V domains shown)
VH: B1 VH 2
VL: B1 VL 2
notes: also called hu40G5c

Kd (human CD3 on T cells [9]): 3 nM
EC50 (read off the curve) (human CD3 on T cells [10]): ~100 ng/mL
EC50 (human CD3 on T cells [11]): 0.09 µg/mL and 0.6 nM
EC50 (human CD3 on T cells [12]): 0.533 µg/mL
EC50 (human CD3 on T cells [13]): 0.21 µg/mL and 1.4 nM
Kd (human CD3 on T cells [14]): 4.2 nM
B4: CD3/CD20 TDB 2H7v16/UCHT1v9 (bispecific antibody, human IgG1, V domains shown)
VH 1: B2 VH 1
VL 1: B2 VL 1
VH 2: EVQLVESGGGLVQPGGSLRLSCAASGYSFTGYTMNWVRQAPGKDLEWVALINPYKGVSTYNQKFKDRFTISVDKSKNTAYLQMNSLRAEDTAVYYCARSGYYGDSDWYFDVWGQGTLVTVSS
VL 2: DIQMTQSPSSLSASVGDRVTITCRASQDIRNYLNWYQQKPGKAPKLLIYYTSRLESGVPSRFSGSGSGTDYTLTISSLQPEDFATYYCQQGNTLPWTFGQGTKLELK
notes: also called TDB A

Kd (human HER2 on cells [15]): 190 nM
B5: hu4D5.Y100A/UCHT1v9 TDB (bispecific antibody, V domains shown)
VH 1: not shown
VL 1: not shown
VH 2: B4 VH 2
VL 2: B4 VL 2
notes: also called hu4D5.Y100A-TDB
